Test system: SaiR-His6 (Bacillus anthracis str. Sterne 7702)
Experiment: restriction enzyme

spxA2 SaiR site 1 wild-type (oMN14-666/oMN14-667)
K half: 6 nM
